Measured values reported in PMC9652377.

Target: β-arrestin-2-YFP, P32121
Experiment: BRET (CXCR4-RLuc / βarr2-YFP) in HEK293T cells
Settings: chain shown with the change; CXCL12 1e-6 M (highest concentration of the curve), 15 min; coel-h 10 min; parent: est. 0.11; read off a plot

Chain of β-arrestin-2-YFP, P32121 (P32121 whole entry): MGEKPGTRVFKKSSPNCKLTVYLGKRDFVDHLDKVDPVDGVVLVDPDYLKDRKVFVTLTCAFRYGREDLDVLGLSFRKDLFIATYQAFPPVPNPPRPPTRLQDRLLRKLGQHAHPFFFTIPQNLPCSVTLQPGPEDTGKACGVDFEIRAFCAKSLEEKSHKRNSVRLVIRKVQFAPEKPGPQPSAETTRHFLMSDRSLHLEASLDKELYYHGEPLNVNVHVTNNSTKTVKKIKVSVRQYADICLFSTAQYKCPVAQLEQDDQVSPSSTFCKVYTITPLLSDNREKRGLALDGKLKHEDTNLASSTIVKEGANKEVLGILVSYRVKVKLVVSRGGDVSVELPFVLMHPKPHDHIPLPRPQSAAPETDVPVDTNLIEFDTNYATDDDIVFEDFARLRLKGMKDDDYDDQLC

B1: chemokine receptor CXCR4 WT, CXCR4-RLuc, P61073 V198F + V197M/V198W (protein)
chain: MEGISIYTSDNYTEEMGSGDYDSMKEPCFREENANFNKIFLPTIYSIIFLTGIVGNGLVILVMGYQKKLRSMTDKYRLHLSVADLLFVITLPFWAVDAVANWYFGNFLCKAVHVIYTVNLYSSVLILAFISLDRYLAIVHATNSQRPRKLLAEKVVYVGVWIPALLLTIPDFIFANVSEADDRYICDRFYPNDLWVMWFQFQHIMVGLILPGIVILSCYCIIISKLSHSKGHQKRKALKTTVILILAFFACWLPYYIGISIDSFILLEIIKQGCEFENTVHKWISITEALAFFHCCLNPILYAFLGAKFKTSAQHALTSVSRGSSLKILSKGKRGGHSSVSTESESSSFHSS
response: 0.09 ΔBRET
